These are literature values, as cited in article PMC5428663, “Identification of small molecule inhibitors of Interleukin-18” (Scientific Reports, 2017).

This data set addresses hIL-18. The conditions noted are these: read-out: affinity for hIL-18.

B1: hIL-18BP (protein, UniProt O95998 31-194, looked up)
Interleukin-18-binding protein: TPVSQTTTAATASVRSTKDPCPSQPPVFPAAKQCPALEVTWPEVEVPLNGTLSLSCVACSRFPNFSILYWLGNGSFIEHLPGRLWEGSTSRERGSTGTQLCKALVLEQLTPALHSTNFSCVLVDPEQVVQRHVVLAQLWAGLRATLPPTQEALPSSHSSPQQQG
In the case of B1, the Kd was 0.4 nM.
